# Experimental data: patent publication US20240010720A1 (IOMX THERAPEUTICS, published 2024)
# T1: IGSF11 ECD fused to murine-Fc (human; mouse, UniProt Q5DX21 23-241)
# T1 construct: also called Fc-fusion IGSF11 ECD; full-length ECD of IGSF11; not shown: murine Fc
# T1 sequence: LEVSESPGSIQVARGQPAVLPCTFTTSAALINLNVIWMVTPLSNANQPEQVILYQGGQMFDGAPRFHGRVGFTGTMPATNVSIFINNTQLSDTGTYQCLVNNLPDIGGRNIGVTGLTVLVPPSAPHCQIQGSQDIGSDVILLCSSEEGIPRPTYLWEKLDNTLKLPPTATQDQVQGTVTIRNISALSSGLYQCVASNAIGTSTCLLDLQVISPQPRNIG
# T2: human IGSF11 (VSIG3) on cells (human, UniProt Q5DX21 23-431)
# T2 sequence: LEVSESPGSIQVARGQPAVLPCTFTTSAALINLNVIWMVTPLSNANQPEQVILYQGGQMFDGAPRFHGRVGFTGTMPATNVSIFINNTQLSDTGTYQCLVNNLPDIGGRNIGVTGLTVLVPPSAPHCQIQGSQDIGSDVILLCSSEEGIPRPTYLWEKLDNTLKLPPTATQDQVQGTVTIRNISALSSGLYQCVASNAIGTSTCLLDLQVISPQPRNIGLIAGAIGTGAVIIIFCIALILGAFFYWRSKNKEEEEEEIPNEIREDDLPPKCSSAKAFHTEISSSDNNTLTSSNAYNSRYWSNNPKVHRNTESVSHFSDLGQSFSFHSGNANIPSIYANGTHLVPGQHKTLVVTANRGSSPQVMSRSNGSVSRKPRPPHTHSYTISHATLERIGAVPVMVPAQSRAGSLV
# T3: His-tagged extracellular domain (ECD) of human IGSF11 (VSIG3) (human, UniProt Q5DX21 23-241)
# T3 construct: partly bought (SinoBiological 13094-H08H); also called IGSF11-HIS; HIS-IGSF11; not shown: HIS6 tag
# T3 sequence: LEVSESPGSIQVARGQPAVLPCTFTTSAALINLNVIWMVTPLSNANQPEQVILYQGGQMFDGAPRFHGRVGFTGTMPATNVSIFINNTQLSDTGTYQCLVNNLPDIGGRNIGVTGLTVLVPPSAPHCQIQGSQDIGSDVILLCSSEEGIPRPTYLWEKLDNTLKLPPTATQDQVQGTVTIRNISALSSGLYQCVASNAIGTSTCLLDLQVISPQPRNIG
# T4: recombinant human IGSF11 (VSIG3) extracellular domain (ECD) (human, UniProt Q5DX21 23-241, biotinylated where captured on streptavidin)
# T4 construct: also called biotinylated recombinant ECD-IGSF11; IGSF11 (ECD domain)
# T4 sequence: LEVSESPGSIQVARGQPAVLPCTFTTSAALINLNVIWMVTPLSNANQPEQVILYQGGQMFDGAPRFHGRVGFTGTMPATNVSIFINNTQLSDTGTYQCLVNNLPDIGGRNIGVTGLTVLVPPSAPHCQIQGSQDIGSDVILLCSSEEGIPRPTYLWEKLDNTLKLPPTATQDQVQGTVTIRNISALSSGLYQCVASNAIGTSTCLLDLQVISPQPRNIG
# T5: recombinant cynomolgus monkey IGSF11 extracellular domain (ECD) (cynomolgus monkey, UniProt Q5DX21 23-241 (human entry), biotinylated)
# T5 chain: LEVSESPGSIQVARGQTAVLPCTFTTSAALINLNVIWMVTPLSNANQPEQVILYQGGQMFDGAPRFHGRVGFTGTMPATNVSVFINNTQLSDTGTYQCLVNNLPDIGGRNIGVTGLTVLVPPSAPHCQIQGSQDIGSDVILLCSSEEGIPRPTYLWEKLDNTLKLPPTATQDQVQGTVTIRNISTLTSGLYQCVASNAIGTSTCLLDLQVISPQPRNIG
# Tests used:
# [1] = biological target: T1, IGSF11 ECD fused to murine-Fc; assay: ELISA, IgG
# [2] = biological target: T2, human IGSF11 (VSIG3) on cells; assay: FACS, DMS 273 cells
# [3] = biological target: T3, His-tagged extracellular domain (ECD) …; assay: ELISA EC50 grade, IgG1
# [4] = biological target: T2, human IGSF11 (VSIG3) on cells; assay: FACS, HEK cells expressing IGSF11
# [5] = biological target: T2, human IGSF11 (VSIG3) on cells; assay: FACS, IgG1-format antibodies; DMS 273 cells (D) treated with IGSF11 siRNA (KD)
# [6] = biological target: T2, human IGSF11 (VSIG3) on cells; assay: FACS, IgG1-format antibodies; M579-A2-luc cells (M) treated with IGSF11 siRNA (KD)
# [7] = biological target: T2, human IGSF11 (VSIG3) on cells; assay: FACS, IgG1-format antibodies; DMS 273 cells (D) treated with scrambled control siRNA (SC)
# [8] = biological target: T2, human IGSF11 (VSIG3) on cells; assay: FACS, IgG1-format antibodies; M579-A2-luc cells (M) treated with scrambled control siRNA (SC)
# [9] = biological target: T2, human IGSF11 (VSIG3) on cells; assay: FACS, IgG1-format antibodies; CL-11 cells (C), a line that does not express IGSF11 (specificity control), IGSF11 siRNA (KD)
# [10] = biological target: T2, human IGSF11 (VSIG3) on cells; assay: FACS, IgG1-format antibodies; CL-11 cells (C), a line that does not express IGSF11 (specificity control), scrambled control siRNA (SC)
# Streptavidin = biological target: T6, Streptavidin (UniProt P22629 37-163, limits assumed); assay: ELISA, scFv
# T6 construct: also called negative antigen; irrelevant antigen
# [11] = biological target: T2, human IGSF11 (VSIG3) on cells; assay: FACS % positive cells, scFv
# [12] = biological target: T4, recombinant human IGSF11 (VSIG3) …; assay: SPR, IgG1
# [13] = biological target: T5, recombinant cynomolgus monkey IGSF11 …; assay: ELISA, Fab
# Protocol: In order to identify IGSF11-specific binding ABPs, monoclonal Fabs expressed from E. coli were generated from the enriched set of anti-IGFS11 antibody-expressing phage. After bacterial lysis, the Fabs were tested for their binding properties and cross-reactivity profile on recombinant ECD-IGSF11 (human, mouse and cynomolgus monkey) by standard ELISA. Briefly, biotinylated recombinant ECD-IGSF11 from human, mouse, or cynomolgus monkey were immobilized at 2 ug/mL on a streptavidin-coated 384-well Maxisorp plate. The surface was blocked with 2% (w/v) skim milk powder in PBST. After three wash cycles with PBST, a bacterial lysate of each of the anti-IGSF11 Fabs in 2% (w/v) skim milk powder was applied to the immobilized IGSF11 and incubated for 1 h. After removing all unbound Fab by 3 wash cycles with PBST, bound Fab antibodies were detected with a goat anti-human Fab antibody conjugated with horseradish peroxidase. After three wash cycles with PBST the ELISA was developed with TMB substrate.
# T6 sequence (P22629 37-163 limits assumed): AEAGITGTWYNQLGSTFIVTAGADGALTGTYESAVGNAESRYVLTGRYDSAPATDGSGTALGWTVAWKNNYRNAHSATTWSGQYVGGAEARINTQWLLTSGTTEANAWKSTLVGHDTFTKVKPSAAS
binder,measurement,setting,value
"A-022 (IgG1 format) (antibody, V domains shown, human IgG1 format) VH: EVQLLESGPGLVKPSQTLSLTCTVSGGSISSGGYYWSWIRQHPGKGLEWIGYIYYSGSTYYNPSLKSRVTISVDTSKNQFSLKLSSVTAADTAVYYCARASRSTDYYFDYWGQGTLVTVSS VL: QPGLTQPPSMSYGLGQTATLTCTGNRNNIGDQGAAWLQQHQGHPPKLLSYRNNNGPSGISERLSASRSGNTASLTISGLQPEDEADYYCSAWDSSLRAWVFGGGTKLTVL",EC50,[1],< 1 nM
same,EC50,[2],10 to 50 nM
same,EC50,[3],< 0.02 nM
same,EC50,[4],10 to 50 nM
"A-027 (IgG1 format) (antibody, V domains shown, human IgG1 format) VH: QVQLVQSGAEVKKPGSSVKVSCKASGGTFSSYAISWVRQAPGQGLEWMGGIIPIFGTANYAQKFQGRVTITADKSTSTAYMELSSLRSEDTAVYYCARARGSTWGYFDYWGQGTLVTVSS VL: EIVLTQSPASLSLSPGERVTLSCRASQSVSNYLAWYQQKPGQAPRLLIYDASNRATGIPARFSGSGSGTDFTLTISSLEPEDFAVYYCQQRDNWPLTFGGGTKVEIK",EC50,[1],1 to 20 nM
same,EC50,[3],> 1 nM
same,EC50,[4],> 50 nM
same,percentage binding (FACS heat-map),[5],2.63%
same,percentage binding (FACS heat-map),[6],2.5%
same,percentage binding (FACS heat-map),[7],14.3%
same,percentage binding (FACS heat-map),[8],3.32%
same,percentage binding (FACS heat-map),[9],4.75%
same,percentage binding (FACS heat-map),[10],3.08%
"A-028 (scFv format) (scFv, V domains shown, scFv) VH: QVQLVQSGAEVKKPGSSVKVSCKASGGTFSSYAISWVRQAPGQGLEWMGGIIPIFGTANYAQKFQGRVTITADESTSTAYMELSSLRSEDTAVYYCARVGVEYQLLWYFDYWGQGTLVTVSS VL: DIQMTQSPSSLSASVGDRVTLTCRTSQTISNYLNWYQQKPGKAPKLLVYAASNLQSWVPSRFSGSGSGTDFTLTISSLQPEDFATYYCQQSYNASFGGGTKVEFK",binding result,Streptavidin,no binding (tested: <0.025 or <0.05 RFU)
same,binding result,[11],binds
"A-004 (IgG1 format) (antibody, V domains shown, human IgG1 format) VH: EVQLVESGGGLVKPGGSLRLSCAASGFTFSSYSMNWVRQAPGKGLEWVSSISSSSSYIYYADSVKGRFTISRDNAKNSLYLQMNSLRAEDTAVYYCARGQLLWFGESALIDAFDIWGQGTMVTVSS VL: EIVLTQSPSSLSASVGDRVTITCRASQSISSYLNWYQLKPGKAPKLLIYAASILQSGVPSRFSGSGSGTDFTLTISSLQPEDFAAYYCQQSYSTPRTFGQGTKLEIK",Kd,[12],100 to 250 nM
same,EC50,[1],1 to 20 nM
same,EC50,[3],< 0.02 nM
"A-035 (IgG1 format) (antibody, V domains shown, human IgG1 format) VH: QVQLVQSGAEVKKPGASVKVSCKASGYTFTGYYMHWVRQAPGQGLEWMGWINPNSGNTGYAQKFQGRVTMTRNTSISTAYMELSSLRSEDTAVYYCARGRLERGYWYFDLWGRGTLVTVSS VL: NFMLTQPHSVSESPGRTVTISCTRSSGSITSNYVQWYQQRPGSAPTILIYEDKERPSEVPDRFSGSIDISSNSASLTISGLKTEDEADYYCQSYGGTSQGVLFGGGTKVTVL",EC50,[1],1 to 20 nM
same,EC50,[3],0.02 to 0.05 nM
same,EC50,[4],> 50 nM
"A-019 (scFv format) (scFv, V domains shown, scFv) VH: QVQLVQSGAEVKKPGASVKVSCKASGYTFTGYYMHWVRQAPGQGLEWMGWINPNSGNTGYAQKFQGRVTMTRNTSISTAYMELSSLRSEDTAVYYCARGGQQQLVLDDYWGQGTLVTVSS VL: not shown",binding result,Streptavidin,no binding (tested: <0.025 or <0.05 RFU)
same,binding result,[11],binds
"A-010 (IgG1 format) (antibody, V domains shown, human IgG1 format) VH: QVQLVQSGAEVKKPGASVKVSCKASGYTFTSYGISWVRQAPGQGLEWMGWISAYNGNTNYAQKLQGRVTMTTDTSTSTAYMELRSLRSDDTAVYYCARVPAWSGQFDYWGQGTLVTVSS VL: QSALTQPASVSGSPGQSITISCTGSSSDVGGYNYVSWYQQYPGKAPKLMIYDVRSRPSGVSNRFSGSKSGNTASLTISGLQAEDEADYYCTSYTSSNTLVIFGGGTKVTVL",EC50,[1],< 1 nM
same,EC50,[3],< 0.02 nM
"A-021 (scFv format) (scFv, V domains shown, scFv) VH: QVQLVQSGAEVKKPGASVKVSCKASGYTFTSYGISWVRQAPGQGLEWMGWISAYNGNTNYAQKLQGRVTMTTDTSTSTAYMELRSLRSDDTAVYYCARVPAWSGQFDYWGQGTLVTVSS VL: QSALTQPASVSGSPGQSITISCTGTSSDVGGYNYVSWYQQHPGKAPKLMIYEVTNRPSGVSDRFSGSKSANTASLTISELQAEDEAVYYCNSYTSGPTYVLFGGGTQLTVL",binding result,Streptavidin,no binding (tested: <0.025 or <0.05 RFU)
same,binding result,[11],binds
"A-007 (IgG1 format) (antibody, V domains shown, human IgG1 format) VH: not shown VL: QSALTQPASVSGSPGQSITIACTGSSSDIGSFSYVSWYQQRPGKAPTLIIYGVNNRPLGVSRRFSGSKSGNTASLSISGLQAEDEADYYCSSYTRRSTVIFGGGTKLTVL",EC50,[2],< 10 nM
same,EC50,[3],< 0.02 nM
same,EC50,[4],< 10 nM
same,percentage binding (FACS heat-map),[5],34.2%
same,percentage binding (FACS heat-map),[6],9.15%
same,percentage binding (FACS heat-map),[7],82.3%
same,percentage binding (FACS heat-map),[8],65.6%
same,percentage binding (FACS heat-map),[9],13.2%
same,percentage binding (FACS heat-map),[10],8.88%
"A-034 (IgG1 format) (antibody, V domains shown, human IgG1 format) VH: QMQLVQSGGGLVKPGGSLRLSCAASGFTFSSYTMNWVRQAPGKGLEWVSSISSIGTYIYYADSVKGRFTISRDNAKNSLYLQMNSLRAEDTAVYYCARVLLSGSYYGYFDSWGQGTLVTVSS VL: QSVLTQPPSVSGAPGQRVTISCTGSSSNIGAGYDVHWYQQLPGTAPKLFIYGNSNRPSGVPDRFSGSKSGTSASLAITGLQAEDEADYYCQSYDSSLSGYVFGTGTKVTVL",Kd,[12],250 to 500 nM
same,EC50,[3],0.05 to 1 nM
"A-013 (IgG1 format) (antibody, V domains shown, human IgG1 format) VH: EVQLVESGGGLIQPGGSLRLSCAASGFTVSSNYMSWVRQAPGKGLEWVSVIYSGGSTYYADSVKGRFTISRDNSKNTLYLQMNSLRAEDTAVYYCARGNPYYYGDLQVNFDYWGQGTLVTVSS VL: QAVVTQEPSLTVSPGGTVTLTCASSTGAVTSAYYPNWFQQKPGQAPRALIYSTSNKHSWTPARFSGSLLGGKAALTLSGVQPEDEADYYCLLYYGGAWVFGGGTKLTVL",Kd,[12],100 to 250 nM
same,EC50,[2],> 50 nM
same,EC50,[3],< 0.02 nM
same,EC50,[4],10 to 50 nM
"A-015 (IgG1 format) (antibody, V domains shown, human IgG1 format) VH: not shown VL: QPVLTQSPSASASLGASVKLTCTLSSGHTNYAIAWRQQQPGKAPRYLMLLNSDGSHTRGGGIPDRFSGSSSGAERYLTISSLQSEDEADYYCMIWHNNAWVFGGGTKLAVL",percentage binding (FACS heat-map),[5],1.6%
same,percentage binding (FACS heat-map),[6],1.3%
same,percentage binding (FACS heat-map),[7],5.97%
same,percentage binding (FACS heat-map),[8],1.17%
same,percentage binding (FACS heat-map),[9],2.91%
same,percentage binding (FACS heat-map),[10],1.95%
"C-006 (Fab format) (Fab, V domains shown, Fab in E. coli lysate) VH: not shown VL: DIQMTQSPSSLSASVGDRVTITCRASQSISSYLNWYQQKPGKAPKLLIYAASSLQSGVPSRFSGSGSGTDFTLTISSLQPEDFATYYCQQSHQSPPITFGQGTKVEIK",A450,[13],< 1
